# Measurements taken from patent US20250206809A1 (UNIVERSITY OF MASSACHUSETTS, published 2025).
# T1: CFA/I (adhesin CfaE) on ETEC strain H10407 (enterotoxigenic Escherichia coli strain …, UniProt P25734 1-360)
# T1 sequence (looked up): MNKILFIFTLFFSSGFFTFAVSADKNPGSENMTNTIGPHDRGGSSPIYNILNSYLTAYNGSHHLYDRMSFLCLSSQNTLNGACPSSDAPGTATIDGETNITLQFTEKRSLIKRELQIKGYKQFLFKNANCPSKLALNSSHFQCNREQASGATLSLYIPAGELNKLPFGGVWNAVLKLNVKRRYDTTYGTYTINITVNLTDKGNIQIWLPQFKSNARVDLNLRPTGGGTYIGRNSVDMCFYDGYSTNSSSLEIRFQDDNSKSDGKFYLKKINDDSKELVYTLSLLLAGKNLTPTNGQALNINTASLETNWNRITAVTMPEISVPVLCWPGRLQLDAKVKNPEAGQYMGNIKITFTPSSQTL
# T2: MBP-CfaE-N (recombinant N-terminal adhesin domain of CfaE fused to an MBP tag) (enterotoxigenic Escherichia coli, UniProt P0AEX9 27-392 = MBP, Biotinylated for SPR; FITC or Alexa Fluor labelled for yeast flow cytometry.)
# T2 construct: It was used unlabelled in ELISA, 'biotinylated' on the chip in the SPR methods, and FITC/Alexa-labelled in yeast flow cytometry; also called recombinant N-terminal truncated CfaE protein; N-terminal truncation of CfaE; not shown: MBP tag and linker of vector pMAL-C5X, and the donor strand complement
# T2 sequence: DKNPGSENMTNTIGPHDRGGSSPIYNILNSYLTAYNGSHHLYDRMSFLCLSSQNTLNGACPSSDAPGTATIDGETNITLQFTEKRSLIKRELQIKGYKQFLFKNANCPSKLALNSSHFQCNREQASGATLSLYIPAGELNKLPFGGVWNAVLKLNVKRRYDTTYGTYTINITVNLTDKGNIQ
# T3: CS19
# T3 construct: not the CS19 on an ETEC strain; also called recombinant CS19; N-terminal adhesin domain of CsdD with MBP tag; not shown: MBP tag from vector pMAL-C5X, with any linker or donor-strand complement
# T3 chain: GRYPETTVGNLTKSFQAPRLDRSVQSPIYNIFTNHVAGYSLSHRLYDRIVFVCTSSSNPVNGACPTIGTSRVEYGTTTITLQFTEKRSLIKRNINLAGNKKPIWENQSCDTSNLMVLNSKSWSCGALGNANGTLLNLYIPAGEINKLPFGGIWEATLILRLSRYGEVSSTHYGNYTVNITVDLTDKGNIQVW
# T4: CS14
# T4 construct: not the CS14 on an ETEC strain; also called recombinant CS14; N-terminal adhesin domain of CsuD with MBP tag; not shown: MBP tag from vector pMAL-C5X, with any linker or donor-strand complement
# T4 chain: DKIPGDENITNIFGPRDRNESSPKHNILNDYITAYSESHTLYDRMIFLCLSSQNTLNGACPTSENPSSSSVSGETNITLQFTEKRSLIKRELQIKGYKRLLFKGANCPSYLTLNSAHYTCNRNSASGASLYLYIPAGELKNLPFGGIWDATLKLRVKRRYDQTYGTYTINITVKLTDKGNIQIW
# B1: VHH antibody 1H4 (monomeric nanobody) (VHH)
# VHH: EVQLVESGGGLVQAGGSLRLSCAASSRTFNHYNIGWFRQAPGKEREFAAAITWNGRSTLYADSVKGRFTISRDNAKNTVYLQMNSLKPEDTAVYYCATLTTWEHKWEYNSQGQGTQVTVSS
# B2: VHH antibody 2R23 (monomeric nanobody) (VHH)
# VHH: QVQLQESGGGLVQAGGSLRLSCAASGYIFWSYGYMGWYRQAPGKERELVATISRGGTTNYADSVKGRFTISRDNAKNTVYLQMNSLKPEDTAVYYCAAGRYAFGYFKYWGQGTQVTVSS
# notes: Yeast-library clone, expressed in the E. coli periplasm
# B3: VHH antibody 2R215 (monomeric nanobody) (VHH)
# VHH: QVQLQESGGGLVQAGGSLRLSCAASGNIFQDAEMGWYRQAPGKEREFVATIAYGGNTNYADSVKGRFTISRDNAKNTVYLQMNSLKPEDTAVYYCAVYTGVYYDRTTGGYVAFEYWGQGTQVTVSS
# notes: Yeast-library clone, expressed in the E. coli periplasm and purified by Ni-NTA; also called monomeric 2R215; monomeric VHH 2R215
# B4: VHH antibody 1D7 (monomeric nanobody) (VHH)
# VHH: EVQLVESGGGLVQAGGSLTLSCAASERTFSYYVMAWFRQAPGKEREFVAGISMSGDSTKYADSVKGRFTISRDNAENTGYLQMNGLKPEDTAVYYCAADRDIRGNFRSWGRGTQVTVSS
# Biological target: T1, CFA/I (adhesin CfaE) on ETEC strain …
# Assay: cell-based or functional assay
row,Binder,MRHA IC100 [µg/mL]
1,B1,200
2,B2,50
3,B3,25
4,B4,100

# Biological target: CS4 on an ETEC strain (enterotoxigenic Escherichia coli)
# Assay: cell-based or functional assay
row,Binder,MRHA IC100 [µg/mL]
1,B1,25
2,B2,25
3,B3,100
4,B4,200

# Biological target: CS14 on an ETEC strain (enterotoxigenic Escherichia coli)
# Assay: cell-based or functional assay
row,Binder,MRHA IC100 [µg/mL]
1,B1,100
2,B2,25
3,B3,200
4,B4,100

# Biological target: CS1 on an ETEC strain (enterotoxigenic Escherichia coli)
# Assay: cell-based or functional assay
row,Binder,MRHA IC100 [µg/mL]
1,B1,100
2,B2,200
3,B3,200
4,B4,50

# Biological target: CS17 on an ETEC strain (enterotoxigenic Escherichia coli)
# Assay: cell-based or functional assay
row,Binder,MRHA IC100 [µg/mL]
1,B1,6.25
2,B2,6.25
3,B3,6.25
4,B4,6.25

# Biological target: CS19 on an ETEC strain (enterotoxigenic Escherichia coli)
# Assay: cell-based or functional assay
row,Binder,MRHA IC100 [µg/mL]
1,B1,100
2,B2,200
3,B3,200
4,B4,100

# Biological target: CS2 on an ETEC strain (enterotoxigenic Escherichia coli)
# Assay: cell-based or functional assay
row,Binder,MRHA IC100 [µg/mL]
1,B1,100
2,B2,200
3,B3,6.25
4,B4,50

# Biological target: CS3 on an ETEC strain (enterotoxigenic Escherichia coli)
# Assay: cell-based or functional assay
row,Binder,MRHA IC100 [µg/mL]
1,B1,100
2,B2,100
3,B3,100
4,B4,50

# Biological target: CS5 on an ETEC strain (enterotoxigenic Escherichia coli)
# Assay: cell-based or functional assay
row,Binder,MRHA IC100 [µg/mL]
1,B1,3.12
2,B2,12.5
3,B3,6.25
4,B4,3.12

# Biological target: CS6 on an ETEC strain (enterotoxigenic Escherichia coli)
# Assay: cell-based or functional assay
row,Binder,MRHA IC100 [µg/mL]
1,B1,25
2,B2,12.5
3,B3,25
4,B4,12.5

# Biological target: CS21 on an ETEC strain (enterotoxigenic Escherichia coli)
# Assay: cell-based or functional assay
row,Binder,MRHA IC100 [µg/mL]
1,B1,25
2,B2,25
3,B3,25
4,B4,25

# Biological target: T2, MBP-CfaE-N (recombinant N-terminal …)
# Assay: SPR, Biacore T200, CfaE on CM5 chip, VHH injected, 25 °C, 1:1 model
# Method: Surface plasmon resonance (SPR) technology was used to assess the binding properties of the VHH molecules (BIACORE® T200 instrument; GE Healthcare). Biotinylated CfaE protein was coupled to a CM5 sensor chip using standard amine coupling chemistry. Various concentrations of lead nanobodies ranging from 1 to 10 ug were injected over the chip surface at a flow rate of 30 I/min. An association step of 60 s was followed by a dissociation step of 180 s, and the final dissociation step was 600 s. Regeneration of the sensor chip surface was accomplished using 3 M MgCl₂. Experiments were performed at 25° C. Kinetic data were analyzed using BIACORE® T200 Evaluation (version 3.0) software and a 1:1 binding model.
Binder,Kd [nM],koff [s⁻¹],kon [M⁻¹ s⁻¹]
B2,9.06,64.6,7.13e+09
B4,17.7,0.0311,1.75e+06

# Biological target: T3, CS19
# Assay: ELISA: plate coated with the recombinant antigen, purified VHH titrated (y axis printed as absorbance at 405, the text says OD450)
row,Binder,binding result
1,B3,binds

# Biological target: T4, CS14
# Assay: as above
row,Binder,binding result
1,B2,binds
